# Measurements taken from article PMC9780223.
# Molecular target: purified recombinant PAPP-A free of STC2 (apo PAPP-A) (human) (UniProt Q13219)
# Test: MST
row,Substance,Kd [µM]
1,"4P2, peptide from the linker region of IGFBP4 (from UniProt P22692)",27.5
2,"4P3, peptide from the linker region of IGFBP4 (from UniProt P22692)",162
3,"5P3, peptide from the linker region of IGFBP5 (from UniProt P24593)",38

# Stronger by Kd, values ahead:
row,Kd [µM],Substance
1,17.3,"5P2, peptide from the linker region of IGFBP5 (from UniProt P24593)"
2,4.43,"5P1, peptide from the linker region of IGFBP5 (from UniProt P24593)"
3,1.73,"4P1, peptide from the linker region of IGFBP4 (from UniProt P22692)"
